Measurements taken from article PMC11323569 (mBio, 2024).

Legend:
[1] = target: PrgKEC, extracytoplasmic region of PrgK (residues 273-871) (Enterococcus faecalis (plasmid pCF10)) (UniProt Q5G3P4); test: […], pH 5.0, 100 mM NaCl; […]
[2] = target: the molecule itself; test: non-reducing SDS-PAGE
[3] = target: the molecule itself; test: […], pH 5.0, 100 mM NaCl; […]

PrgL_(32-208), extracellular domain of PrgL (domain or fragment)
stoichiometry N (PrgL32-208 per PrgKEC (1:1)) [1]: 1

B1: PrgK_(SLT-CHAP) (residues 530-871) (domain or fragment)
chain: LLGSADFSPGASVEKRAQAVYDYLSKKGYTKEGISAILGNFSVESGINPKRAEGDYLNPPVGAHGNSWDEPSWLSMGGPQIYGGRFPNILHRGLGLGQWTDTADGGRRHTLLLDYAKGKNKKWYDLQLQLDFIFDGDAPGSRTAADNVARSKVAATIPELTTYFLTVWEGNPGDKLGERIQAAQNWFTFFSRSGTPIGGSGSEVFAQYKEKMQPLPTDRETKAGQGWPGNAYAPGNCTWYVFNRFAQLGKSIHPTMGNANQWVHNYSQTPGATLESAPKKGDAVIFTNGVAGSSTQYGHVAYVEHVNSDGSFVISEMNVSGEYSMNWRVLKKEAGEYFMRLN
binding result [2]: binds

B2: PrgK_(CHAP) (residues 723-871) (domain or fragment)
chain: GTPIGGSGSEVFAQYKEKMQPLPTDRETKAGQGWPGNAYAPGNCTWYVFNRFAQLGKSIHPTMGNANQWVHNYSQTPGATLESAPKKGDAVIFTNGVAGSSTQYGHVAYVEHVNSDGSFVISEMNVSGEYSMNWRVLKKEAGEYFMRLN
notes: also called CHAP domain; source: E. coli BL21(DE3), purified (IMAC fractions)
binding result [2]: binds

B3: PrgKEC, extracytoplasmic region of PrgK (residues 273-871) (domain or fragment)
chain: ASSTQKPAIVQEEEDLTASWTYFTKLDAQHTDDNNLFYSNIDEVLFYMNYRYDDFKLLDMDSTGTKNFETILSELWTALNGKKPDYQLKTMQSLETDKKSSYFIEEEQAKHYQEIKKELGYQTLDDLLSFPVKTDALIVNKRYGYDKSKEKLTLYQGIDVLIEDNQPFHSPMNGQIVSVPDTETLVIEKEKVARLTIRGVNTLRLTKGMDVEEGTFLGNTKNSTVTFQYEKYKKETKDWFFVNPAFYFPRVTYTQTTLLGSADFSPGASVEKRAQAVYDYLSKKGYTKEGISAILGNFSVESGINPKRAEGDYLNPPVGAHGNSWDEPSWLSMGGPQIYGGRFPNILHRGLGLGQWTDTADGGRRHTLLLDYAKGKNKKWYDLQLQLDFIFDGDAPGSRTAADNVARSKVAATIPELTTYFLTVWEGNPGDKLGERIQAAQNWFTFFSRSGTPIGGSGSEVFAQYKEKMQPLPTDRETKAGQGWPGNAYAPGNCTWYVFNRFAQLGKSIHPTMGNANQWVHNYSQTPGATLESAPKKGDAVIFTNGVAGSSTQYGHVAYVEHVNSDGSFVISEMNVSGEYSMNWRVLKKEAGEYFMRLN
notes: also called PrgKEC wild type; extracellular domain of PrgK; source: E. coli BL21(DE3), purified (Ni-NTA, PreScission elution, Superdex-200 SEC)
stoichiometry N [3]: 2 chains in the oligomer (dimer)
